In patent US20250304650A1:

Target: feline FcRn (FCN-F82W3, Acrobiosystems) (feline)
Assay: SPR Carterra, IgG coupled, pH 6.0

Row | Binder | Kd | koff | kon
1 | anti-NGF feline IgG1a, Fc variant S290V, R334D (antibody, part only; not given: anti-NGF variable domains, light chain, not shown: another chain or arm of the molecule; small tags and cut ends) Fc: PPEMLGGPSIFIFPPKPKDTLSISRTPEVTCLVVDLGPDDSDVQITWFVDNTQVYTAKTVPREEQFNSTYRVVSVLPILHQDWLKGKEFKCKVNSKSLPSPIEDTISKAKGQPHEPQVYVLPPAQEELSRNKVSVTCLIKSFHPPDIAVEWEITGQPEPENNYRTTPPQLDSDGTYFVYSKLSVDRSHWQRGNTYTCSVSHEALHSHHTQKSLTQSPGK | 0.0107 µM | 0.00997 s⁻¹ | 931000 M⁻¹ s⁻¹
2 | anti-NGF feline IgG1a, Fc variant T286D (antibody, part only; not given: anti-NGF variable domains, not shown: another chain or arm of the molecule; small tags and cut ends) Fc: PPEMLGGPSIFIFPPKPKDTLSISRTPEVTCLVVDLGPDDSDVQITWFVDNTQVYDAKTSPREEQFNSTYRVVSVLPILHQDWLKGKEFKCKVNSKSLPSPIERTISKAKGQPHEPQVYVLPPAQEELSRNKVSVTCLIKSFHPPDIAVEWEITGQPEPENNYRTTPPQLDSDGTYFVYSKLSVDRSHWQRGNTYTCSVSHEALHSHHTQKSLTQSPGK | 0.0974 µM | 0.0389 s⁻¹ | 400000 M⁻¹ s⁻¹
3 | anti-NGF feline IgG1a, Fc variant S252R, L262Q (antibody, part only; not given: anti-NGF variable domains, light chain, not shown: another chain or arm of the molecule; small tags and cut ends) Fc: PPEMLGGPSIFIFPPKPKDTLRISRTPEVTCQVVDLGPDDSDVQITWFVDNTQVYTAKTSPREEQFNSTYRVVSVLPILHQDWLKGKEFKCKVNSKSLPSPIERTISKAKGQPHEPQVYVLPPAQEELSRNKVSVTCLIKSFHPPDIAVEWEITGQPEPENNYRTTPPQLDSDGTYFVYSKLSVDRSHWQRGNTYTCSVSHEALHSHHTQKSLTQSPGK | 0.0049 µM | 0.00795 s⁻¹ | 1.63e+06 M⁻¹ s⁻¹
4 | anti-NGF feline IgG1a with wild-type Fc (antibody, part only; not given: anti-NGF variable domains, not shown: another chain or arm of the molecule; small tags and cut ends) Fc: PPEMLGGPSIFIFPPKPKDTLSISRTPEVTCLVVDLGPDDSDVQITWFVDNTQVYTAKTSPREEQFNSTYRVVSVLPILHQDWLKGKEFKCKVNSKSLPSPIERTISKAKGQPHEPQVYVLPPAQEELSRNKVSVTCLIKSFHPPDIAVEWEITGQPEPENNYRTTPPQLDSDGTYFVYSKLSVDRSHWQRGNTYTCSVSHEALHSHHTQKSLTQSPGK | 0.233 µM | 0.11 s⁻¹ | 472000 M⁻¹ s⁻¹
5 | anti-NGF feline IgG1a, Fc variant S254K (antibody, part only; not given: Anti-NGF variable domains, not shown: another chain or arm of the molecule; small tags and cut ends) Fc: PPEMLGGPSIFIFPPKPKDTLSIKRTPEVTCLVVDLGPDDSDVQITWFVDNTQVYTAKTSPREEQFNSTYRVVSVLPILHQDWLKGKEFKCKVNSKSLPSPIERTISKAKGQPHEPQVYVLPPAQEELSRNKVSVTCLIKSFHPPDIAVEWEITGQPEPENNYRTTPPQLDSDGTYFVYSKLSVDRSHWQRGNTYTCSVSHEALHSHHTQKSLTQSPGK | 0.107 µM | 0.0557 s⁻¹ | 521000 M⁻¹ s⁻¹
6 | anti-NGF feline IgG1a, Fc variant R301L (antibody, part only; not given: anti-NGF variable domains, not shown: another chain or arm of the molecule; small tags and cut ends) Fc: PPEMLGGPSIFIFPPKPKDTLSISRTPEVTCLVVDLGPDDSDVQITWFVDNTQVYTAKTSPREEQFNSTYLVVSVLPILHQDWLKGKEFKCKVNSKSLPSPIERTISKAKGQPHEPQVYVLPPAQEELSRNKVSVTCLIKSFHPPDIAVEWEITGQPEPENNYRTTPPQLDSDGTYFVYSKLSVDRSHWQRGNTYTCSVSHEALHSHHTQKSLTQSPGK | 0.0952 µM | 0.0435 s⁻¹ | 457000 M⁻¹ s⁻¹
7 | anti-NGF feline IgG1a, Fc variant S252R, A378E (antibody, part only; not given: Anti-NGF variable domains, not shown: another chain or arm of the molecule; small tags and cut ends) Fc: PPEMLGGPSIFIFPPKPKDTLRISRTPEVTCLVVDLGPDDSDVQITWFVDNTQVYTAKTSPREEQFNSTYRVVSVLPILHQDWLKGKEFKCKVNSKSLPSPIERTISKAKGQPHEPQVYVLPPAQEELSRNKVSVTCLIKSFHPPDIEVEWEITGQPEPENNYRTTPPQLDSDGTYFVYSKLSVDRSHWQRGNTYTCSVSHEALHSHHTQKSLTQSPGK | 0.0353 µM | 0.00927 s⁻¹ | 262000 M⁻¹ s⁻¹

The remaining binders from weak to strong by Kd, led by results:

Row | Kd | koff | kon | Binder
8 | 0.146 µM | 0.0665 s⁻¹ | 455000 M⁻¹ s⁻¹ | anti-NGF feline IgG1a, Fc variant E293H (antibody, part only; not given: anti-NGF variable domains, light chain, not shown: another chain or arm of the molecule; small tags and cut ends) Fc: PPEMLGGPSIFIFPPKPKDTLSISRTPEVTCLVVDLGPDDSDVQITWFVDNTQVYTAKTSPRHEQFNSTYRVVSVLPILHQDWLKGKEFKCKVNSKSLPSPIERTISKAKGQPHEPQVYVLPPAQEELSRNKVSVTCLIKSFHPPDIAVEWEITGQPEPENNYRTTPPQLDSDGTYFVYSKLSVDRSHWQRGNTYTCSVSHEALHSHHTQKSLTQSPGK
9 | 0.128 µM | 0.0849 s⁻¹ | 661000 M⁻¹ s⁻¹ | anti-NGF feline IgG1a, Fc variant S290Y (antibody, part only; not given: anti-NGF variable domains, not shown: another chain or arm of the molecule; small tags and cut ends) Fc: PPEMLGGPSIFIFPPKPKDTLSISRTPEVTCLVVDLGPDDSDVQITWFVDNTQVYTAKTYPREEQFNSTYRVVSVLPILHQDWLKGKEFKCKVNSKSLPSPIERTISKAKGQPHEPQVYVLPPAQEELSRNKVSVTCLIKSFHPPDIAVEWEITGQPEPENNYRTTPPQLDSDGTYFVYSKLSVDRSHWQRGNTYTCSVSHEALHSHHTQKSLTQSPGK
10 | 0.0934 µM | 0.0457 s⁻¹ | 489000 M⁻¹ s⁻¹ | anti-NGF feline IgG1a, Fc variant T286E (antibody, part only; not given: anti-NGF variable domains, light chain, not shown: another chain or arm of the molecule; small tags and cut ends) Fc: PPEMLGGPSIFIFPPKPKDTLSISRTPEVTCLVVDLGPDDSDVQITWFVDNTQVYEAKTSPREEQFNSTYRVVSVLPILHQDWLKGKEFKCKVNSKSLPSPIERTISKAKGQPHEPQVYVLPPAQEELSRNKVSVTCLIKSFHPPDIAVEWEITGQPEPENNYRTTPPQLDSDGTYFVYSKLSVDRSHWQRGNTYTCSVSHEALHSHHTQKSLTQSPGK
11 | 0.0592 µM | 0.0116 s⁻¹ | 196000 M⁻¹ s⁻¹ | anti-NGF feline IgG1a, Fc variant Q311R (antibody, part only; not given: Anti-NGF variable domains, not shown: another chain or arm of the molecule; small tags and cut ends) Fc: PPEMLGGPSIFIFPPKPKDTLSISRTPEVTCLVVDLGPDDSDVQITWFVDNTQVYTAKTSPREEQFNSTYRVVSVLPILHRDWLKGKEFKCKVNSKSLPSPIERTISKAKGQPHEPQVYVLPPAQEELSRNKVSVTCLIKSFHPPDIAVEWEITGQPEPENNYRTTPPQLDSDGTYFVYSKLSVDRSHWQRGNTYTCSVSHEALHSHHTQKSLTQSPGK
12 | 0.0245 µM | 0.0324 s⁻¹ | 1.33e+06 M⁻¹ s⁻¹ | anti-NGF feline IgG1a, Fc variant R392E (antibody, part only; not given: anti-NGF variable domains, light chain, not shown: another chain or arm of the molecule; small tags and cut ends) Fc: PPEMLGGPSIFIFPPKPKDTLSISRTPEVTCLVVDLGPDDSDVQITWFVDNTQVYTAKTSPREEQFNSTYRVVSVLPILHQDWLKGKEFKCKVNSKSLPSPIERTISKAKGQPHEPQVYVLPPAQEELSRNKVSVTCLIKSFHPPDIAVEWEITGQPEPENNYETTPPQLDSDGTYFVYSKLSVDRSHWQRGNTYTCSVSHEALHSHHTQKSLTQSPGK
13 | 0.0107 µM | 0.0123 s⁻¹ | 1.15e+06 M⁻¹ s⁻¹ | anti-NGF feline IgG1a, Fc variant R301L, E380V, T437L (antibody, part only; not given: anti-NGF variable domains, light chain, not shown: another chain or arm of the molecule; small tags and cut ends) Fc: PPEMLGGPSIFIFPPKPKDTLSISRTPEVTCLVVDLGPDDSDVQITWFVDNTQVYTAKTSPREEQFNSTYLVVSVLPILHQDWLKGKEFKCKVNSKSLPSPIERTISKAKGQPHEPQVYVLPPAQEELSRNKVSVTCLIKSFHPPDIAVVWEITGQPEPENNYRTTPPQLDSDGTYFVYSKLSVDRSHWQRGNTYTCSVSHEALHSHHLQKSLTQSPGK
14 | 0.0099 µM | 0.00977 s⁻¹ | 983000 M⁻¹ s⁻¹ | anti-NGF feline IgG1a, Fc variant T260E, L309E, Q355L (antibody, part only; not given: anti-NGF variable domains, not shown: another chain or arm of the molecule; small tags and cut ends) Fc: PPEMLGGPSIFIFPPKPKDTLSISRTPEVECLVVDLGPDDSDVQITWFVDNTQVYTAKTSPREEQFNSTYRVVSVLPIEHQDWLKGKEFKCKVNSKSLPSPIERTISKAKGQPHEPQVYVLPPALEELSRNKVSVTCLIKSFHPPDIAVEWEITGQPEPENNYRTTPPQLDSDGTYFVYSKLSVDRSHWQRGNTYTCSVSHEALHSHHTQKSLTQSPGK
15 | 0.0038 µM | 0.012 s⁻¹ | 3.17e+06 M⁻¹ s⁻¹ | anti-NGF feline IgG1a, Fc variant S428L, E380T, S434R (antibody, part only; not given: anti-NGF variable domains, not shown: another chain or arm of the molecule; small tags and cut ends) Fc: PPEMLGGPSIFIFPPKPKDTLSISRTPEVTCLVVDLGPDDSDVQITWFVDNTQVYTAKTSPREEQFNSTYRVVSVLPILHQDWLKGKEFKCKVNSKSLPSPIERTISKAKGQPHEPQVYVLPPAQEELSRNKVSVTCLIKSFHPPDIAVTWEITGQPEPENNYRTTPPQLDSDGTYFVYSKLSVDRSHWQRGNTYTCSVLHEALHRHHTQKSLTQSPGK
